From the supplement of paper PMC10126150
± gives the standard deviation of the averaged measurements.

Test system: ATP
Experiment: switch fluorescence ratio, 500 uM ATP over buffer (Cy3 cluster intensity, sum of 5 cycles each) (fold (ratio)); higher = stronger signal-on switching upon ATP binding; sequences stand for … in TCGTCGGCAGCGTCAGATGTGTATAAGAGACAGTTTTTTTTTTTTTTTTTTTTTTTTT…TC
Details: aptamer strand: ATP DNA aptamer (quencher-CACCTGGGGGAGTATTGCGGAGGAAGG + anchor), 100 nM annealed; ATP concentration: 500 uM
Method in brief: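 Values give the fluorescence ratio for each switch-domain sequence, averaged from per-cluster ratios of summed target-cycle to summed buffer-cycle Cy3 intensity. The Cy3-labelled switching-strand clusters sat on a modified Illumina MiSeq flow-cell, were annealed to 100 nM quencher-labelled ATP aptamer, and were imaged in selection buffer, then after 15 min with 500 uM ATP at 22 °C. Five cycles ran with NaOH stripping and re-annealing between them, and clusters outside 100-1000 RFU were excluded.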
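Further: ATP exposure 15 min at 22 °C before imaging.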

Sequence	switch fluorescence ratio
AAAAAAATGT	1.054 ± 0.01
AAAAAAGAGA	0.977 ± 0.046
AAAAAAGGGA	0.995 ± 0.022
AAAAAAGTAG	1.03 ± 0.012
AAAAAAGTTA	1 ± 0.064
AAAAAATCGT	1.02 ± 0.057
AAAAAATGGA	1.01 ± 0.031
AAAAAATTAA	1.04 ± 0.026
AAAAAATTTA	0.996 ± 0.043
AAAAACAAAA	1.04 ± 0.065
AAAAACATTT	0.998 ± 0.051
AAAAACGCTG	1.039 ± 0.0093
AAAAAGGGGA	1 ± 0.032
AAAAAGGGGG	1.02 ± 0.045
AAAAAGTATG	1 ± 0.026
AAAAAGTCGG	1.04 ± 0.029
AAAAAGTCTT	1 ± 0.015
AAAAAGTTGG	1.005 ± 0.0099
AAAAAGTTGT	1 ± 0.028
AAAAATGTAT	0.975 ± 0.019
AAAAATTTTA	0.993 ± 0.026
AAAAATTTTG	1.04 ± 0.056
AAAACAAAAT	1.05 ± 0.026
AAAACAGTAA	1.02 ± 0.032
AAAACGACCC	1.11 ± 0.07

Sequence	switch fluorescence ratio
AAAACGATAT	1.046 ± 0.0062
AAAACGGTTG	1 ± 0.019
AAAACGTATA	1.07 ± 0.039
AAAACTCTGT	1.04 ± 0.015
AAAACTTATG	1.026 ± 0.0033
AAAACTTTTG	1.02 ± 0.038
AAAACTTTTT	1.04 ± 0.051
AAAAGAAAGG	0.985 ± 0.012
AAAAGACGTT	1 ± 0.029
AAAAGAGCCC	1.0191 ± 0.0008
AAAAGAGGGA	0.999 ± 0.043
AAAAGATGGG	1.02 ± 0.0016
AAAAGCTTTA	0.983 ± 0.018
AAAAGGAAAG	0.957 ± 0.037
AAAAGGAACT	1.04 ± 0.044
AAAAGGAAGT	1.01 ± 0.016
AAAAGGACTT	0.994 ± 0.002
AAAAGGCTAA	1 ± 0.0037
AAAAGGGCAG	0.986 ± 0.031
AAAAGGGGTT	1.02 ± 0.043
AAAAGGGTCG	1.05 ± 0.087
AAAAGGGTTG	0.99 ± 0.033
AAAAGTAAAG	0.987 ± 0.033
AAAAGTACGA	1.07 ± 0.011
AAAAGTACGC	1.09 ± 0.11

Sequence	switch fluorescence ratio
AAAAGTGGGA	1.03 ± 0.031
AAAAGTTACA	1.027 ± 0.0092
AAAAGTTGGG	1.01 ± 0.014
AAAAGTTTTG	1.01 ± 0.011
AAAATAAGAG	1.009 ± 0.0037
AAAATACAGA	1.08 ± 0.17
AAAATAGATT	1.032 ± 0.0078
AAAATATTTA	1.02 ± 0.012
AAAATATTTG	0.964 ± 0.011
AAAATCGACC	1.08 ± 0.011
AAAATGCCAC	1.04 ± 0.024
AAAATGCGAG	1 ± 0.0062
AAAATGGGGG	1 ± 0.03
AAAATTAGGA	1.02 ± 0.069
AAAATTAGGT	0.9779 ± 0.0093
AAAATTATTG	1 ± 0.022
AAAATTCAGT	0.9893 ± 0.0089
AAAATTTAGC	0.964 ± 0.054
AAAATTTTGT	1 ± 0.021
AAACAAGCTT	1.02 ± 0.021
AAACAAGTTG	1.02 ± 0.035
AAACACCGGG	1.11 ± 0.031
AAACACGGTG	1.19 ± 0.17
AAACAGGAGT	1.008 ± 0.0037
AAACAGGGAG	0.974 ± 0.075

Sequence	switch fluorescence ratio
AAACAGGGTA	0.9906 ± 0.0079
AAACAGTTAT	1.03 ± 0.042
AAACATTATT	1 ± 0.063
AAACCATCCG	1.63 ± 0.064
AAACCCGATA	1.05 ± 0.025
AAACCGGGGT	1.66 ± 0.94
AAACGCCATT	1.13 ± 0.018
AAACGCTGCG	1.02 ± 0.035
AAACGGGTCA	0.983 ± 0.03
AAACGGTGTG	1.03 ± 0.037
AAACGTAACG	1.07 ± 0.029
AAACGTATGT	0.9984 ± 0.0079
AAACGTTGCT	1.19 ± 0.015
AAACTACTCT	1.03 ± 0.02
AAACTAGAAG	1.01 ± 0.019
AAACTGGATG	0.9783 ± 0.0039
AAACTTCGCT	1.27 ± 0.25
AAACTTGTAA	1.01 ± 0.027
AAACTTTTTC	1.02 ± 0.065
AAAGAAAAAA	1.012 ± 0.0025
AAAGAAAGGA	0.977 ± 0.032
AAAGAGAGAC	1.0086 ± 0.00021
AAAGAGCTAG	1 ± 0.053
AAAGAGGCGG	1.006 ± 0.0013
AAAGAGGGGA	1.03 ± 0.016

Sequence	switch fluorescence ratio
AAAGAGGGTG	1.1 ± 0.058
AAAGAGGTAG	0.9983 ± 0.0024
AAAGAGGTTT	0.985 ± 0.034
AAAGAGTGCG	1 ± 0.042
AAAGATAGAT	1.002 ± 0.0027
AAAGATCGTT	0.9799 ± 0.0055
AAAGATTTTG	0.982 ± 0.031
AAAGCAGGGG	1.06 ± 0.037
AAAGCCGGTT	0.9689 ± 0.004
AAAGCCTGGG	0.966 ± 0.027
AAAGCGGATG	0.986 ± 0.077
AAAGCGTATA	0.987 ± 0.052
AAAGCTGGGG	0.981 ± 0.048
AAAGCTGGGT	1 ± 0.026
AAAGGAAAGG	0.992 ± 0.014
AAAGGAAGGG	0.989 ± 0.033
AAAGGAATTT	1.12 ± 0.19
AAAGGAGATT	0.996 ± 0.028
AAAGGAGTA	1.01 ± 0.037
AAAGGATACG	1.01 ± 0.034
AAAGGCCAGT	1.03 ± 0.018
AAAGGCCGGA	1.03 ± 0.041
AAAGGCCGTC	1.04 ± 0.012
AAAGGCCTG	1.01 ± 0.017
AAAGGCTCGG	0.978 ± 0.022

Sequence	switch fluorescence ratio
AAAGGGCTCT	0.9821 ± 0.0078
AAAGGGGTTT	1.02 ± 0.022
AAAGGGTATA	0.978 ± 0.064
AAAGGGTGGC	1.01 ± 0.028
AAAGGGTTGC	0.999 ± 0.041
AAAGGTAGGG	0.993 ± 0.032
AAAGGTAGTA	0.9934 ± 0.0097
AAAGGTCAGG	1 ± 0.028
AAAGGTGCCA	1.05 ± 0.015
AAAGGTTATC	1.018 ± 0.0098
AAAGTCTTT	1.02 ± 0.047
AAAGTGAGGT	1.01 ± 0.017
AAAGTGGTGG	1.02 ± 0.039
AAAGTGTTGT	0.979 ± 0.039
AAAGTGTTTG	1.02 ± 0.016
AAAGTGTTTT	0.995 ± 0.051
AAAGTTGATT	1.01 ± 0.03
AAAGTTTCAT	0.991 ± 0.034
AAATAAAAAC	1.08 ± 0.044
AAATAACGAG	1 ± 0.036
AAATACCGGC	1.1 ± 0.16
AAATACGTCT	1.09 ± 0.096
AAATAGGCAT	1.0235 ± 0.00029
AAATAGGGGT	1 ± 0.039
AAATAGGGTA	0.993 ± 0.023

Sequence	switch fluorescence ratio
AAATAGGTG	1.12 ± 0.058
AAATAGGTGA	1.05 ± 0.025
AAATAGGTTG	1.01 ± 0.021
AAATAGTGG	0.9626 ± 0.0063
AAATATATTA	1.02 ± 0.016
AAATATTGGG	0.98 ± 0.068
AAATATTGTG	0.982 ± 0.023
AAATCCGAAT	1.01 ± 0.069
AAATCGAGCT	1.04 ± 0.049
AAATCGAGGA	1.018 ± 0.0096
AAATCGGGGG	1.05 ± 0.084
AAATCGTAGT	0.9885 ± 0.0069
AAATCGTGGA	0.987 ± 0.011
AAATCGTTGT	0.975 ± 0.043
AAATCTCGGA	1.2 ± 0.31
AAATCTCTGA	1.01 ± 0.025
AAATCTTTCG	1.05 ± 0.044
AAATGACAGT	1.01 ± 0.028
AAATGAGTTA	0.99 ± 0.019
AAATGCAAAG	0.991 ± 0.016
AAATGCCAGG	1.08 ± 0.032
AAATGGAGTG	0.987 ± 0.018
AAATGGGAAA	1.06 ± 0.084
AAATGGTGTC	1.01 ± 0.055
AAATGTCTAA	1 ± 0.019

Sequence	switch fluorescence ratio
AAATGTTCCG	1.03 ± 0.011
AAATGTTCGT	1.011 ± 0.0058
AAATGTTTAC	1.034 ± 0.0095
AAATTAACAT	1.08 ± 0.13
AAATTAGAGG	1 ± 0.026
AAATTAGTGT	0.968 ± 0.018
AAATTATTTT	0.999 ± 0.014
AAATTCATAC	1.052 ± 0.0078
AAATTCGCTG	1.01 ± 0.095
AAATTCGGCG	1.01 ± 0.023
AAATTCGGTT	0.99 ± 0.013
AAATTGAGGG	1.02 ± 0.061
AAATTGATCC	0.964 ± 0.016
AAATTGGCTT	0.97 ± 0.044
AAATTGGGTT	0.9768 ± 0.0091
AAATTGTCAA	1.01 ± 0.05
AAATTTAATC	1.02 ± 0.034
AAATTTAGGA	0.987 ± 0.021
AAATTTAGTT	1.017 ± 0.006
AAATTTCTTT	0.996 ± 0.016
AAATTTGAAT	1.0094 ± 0.00021
AAATTTGCGT	0.987 ± 0.02
AAATTTGGGA	0.969 ± 0.027
AAATTTGGGG	1 ± 0.038
AAATTTTGAA	0.977 ± 0.021
